Assay results published in article PMC3384689 (Biochemistry, 2012).

B1: Thermotoga maritima FliG N-terminal domain construct, residues 1–102 (FliGN) (domain or fragment, UniProt Q9WY63 1-102, looked up)
chain: MPEKKIDGRRKAAVLLVALGPEKAAQVMKHLDEETVEQLVVEIANIGRVTPEEKKQVLEEFLSLAKAKEMISEGGIEYAKKVLEKAFGPERARKIIERLTSS
modifications: 15N, 2H (and 13C) isotope labelling in the NMR experiments
B2: full-length Thermotoga maritima FliG (FliGNMC) (natural protein, UniProt Q9WY63 1-335, looked up)
chain: MPEKKIDGRRKAAVLLVALGPEKAAQVMKHLDEETVEQLVVEIANIGRVTPEEKKQVLEEFLSLAKAKEMISEGGIEYAKKVLEKAFGPERARKIIERLTSSLQVKPFSFVRDTDPVQLVNFLQSEHPQTIAVVLSYLDPPVAAQILGALPEELQTEVLKRIALLERTSPEVVKEIERNLEKKISGFVSRTFSKVGGIDTAAEIMNNLDRTTEKKIMDKLVQENPELADEIRRRMFVFEDILKLDDRSIQLVLREVDTRDLALALKGASDELKEKIFKNMSKRAAALLKDELEYMGPVRLKDVEEAQQKIINIIRRLEEAGEIVIARGGGEELIM
B3: full-length FliG: full-length T. maritima FliGNMC, including a N-terminal 6X-His tag (protein)
chain: B2 chain
modifications: left off: 6X-His, N-terminal, state not stated

Legend:
SEC-MALS = biological target: the molecule itself; experiment: SEC-MALS
[1] = biological target: synthetic FliF_(495–532) peptide of Thermotoga maritima FliF (Thermotoga maritima); experiment: other fluorescence titration
[2] = biological target: synthetic FliF_(512–532) peptide of Thermotoga maritima FliF (Thermotoga maritima); experiment: other fluorescence titration
full-length FliG = experiment: Size-exclusion chromatography / light scattering, full-length FliG; assay type: physicochemical, T. maritima; conditions: SEC / static light scattering / refractive index; ~1 mg/mL, 25 mM Tris, 200 mM NaCl, 0.5 mM EDTA, pH 7.4

| Molecule | stoichiometry N (SEC-MALS) | stoichiometry N [1] | Kd [2] [nM] | Calculated Mw of full-length FliG, absence of peptide (full-length FliG) | Oligomeric state of full-length FliG, absence of peptide (full-length FliG) |
| --- | --- | --- | --- | --- | --- |
| B1 | 2 | 1 | 84 |  |  |
| B2 | 2 |  |  |  |  |
| B3 |  |  |  | ≈ 79 kD | tight dimer |
